The test addresses SARS-CoV-2 Spike Trimer (B.1.617.2/Delta) (SARS-CoV-2) (UniProt P0DTC2). Nature of the test: single-molecule force spectroscopy.

Consider “H84T-banana lectin (H84T-BanLec) (from UniProt Q8L5H4 1-141) (designed binder)”, for which the IC50 was found to be 3.9 nM.

Values taken from paper PMC9519379 (Cell Reports Medicine, 2022).
